From PMC3677924, “Biochemical and Functional Analysis of Drosophila-Sciara Chimeric Sex-Lethal Proteins”

T1: SXS (GST-SXL Sciara) (Sciara ocellaris, UniProt Q86QM9 1-287)
T1 sequence: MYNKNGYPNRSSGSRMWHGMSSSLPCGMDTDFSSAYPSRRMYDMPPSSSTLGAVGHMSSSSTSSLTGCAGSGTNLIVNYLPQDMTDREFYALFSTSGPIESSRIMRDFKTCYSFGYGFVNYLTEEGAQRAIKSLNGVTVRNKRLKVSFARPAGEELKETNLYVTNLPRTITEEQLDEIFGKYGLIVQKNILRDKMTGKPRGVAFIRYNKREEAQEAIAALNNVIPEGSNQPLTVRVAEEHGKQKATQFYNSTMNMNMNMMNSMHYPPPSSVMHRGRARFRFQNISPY

T2: SXM (GST-SXL Drosophila) (Drosophila melanogaster, UniProt P19339 1-354)
T2 sequence: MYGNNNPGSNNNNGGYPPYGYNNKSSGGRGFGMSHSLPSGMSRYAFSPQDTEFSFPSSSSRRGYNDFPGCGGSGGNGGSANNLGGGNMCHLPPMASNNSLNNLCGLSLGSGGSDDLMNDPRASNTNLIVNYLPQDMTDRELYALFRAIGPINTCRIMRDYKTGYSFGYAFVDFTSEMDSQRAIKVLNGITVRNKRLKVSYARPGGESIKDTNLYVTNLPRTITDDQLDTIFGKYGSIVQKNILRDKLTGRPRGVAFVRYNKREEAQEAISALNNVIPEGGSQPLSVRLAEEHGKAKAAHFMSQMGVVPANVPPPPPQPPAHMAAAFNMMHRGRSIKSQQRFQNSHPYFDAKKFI

B1: double poly(U) SXL site (ssRNA)
RNA: CAUGAUUAUUUUUUUUUAUUUUUUUUCGGUGA
B2: single poly(U) SXL site (ssRNA)
RNA: ACAUAUUUUUUUUCACAGC

Key:
Conditions in all cases: protein: recombinant; tags: GST; label: fluorescein (RNA labelling mix)
SXS (GST-SXL Sciara) = target: T1, SXS (GST-SXL Sciara); test: EMSA; Hill n=1; error 95% CI; 20 mM Hepes pH 8.0, 0.1 M KCl, 0.5 mM EDTA, 1 mM DTT, 0.05% NP40, 20% glycerol, 3 µg yeast tRNA; 5 min on ice, then 10 min at room temperature with RNA; 5% native PAGE, 0.25x TBE
SXM (GST-SXL Drosophila) [1] = target: T2, SXM (GST-SXL Drosophila); test: EMSA; cooperative, Hill n>2; error 95% CI; 20 mM Hepes pH 8.0, 0.1 M KCl, 0.5 mM EDTA, 1 mM DTT, 0.05% NP40, 20% glycerol, 3 µg yeast tRNA; 5 min on ice, then 10 min at room temperature with RNA; 5% native PAGE, 0.25x TBE
SXM (GST-SXL Drosophila) [2] = target: T2, SXM (GST-SXL Drosophila); test: EMSA; apparent Kd, Hill fit; error 95% CI; 20 mM Hepes pH 8.0, 0.1 M KCl, 0.5 mM EDTA, 1 mM DTT, 0.05% NP40, 20% glycerol, 3 µg yeast tRNA; 5 min on ice, then 10 min at room temperature with RNA; 5% native PAGE, 0.25x TBE

| Binder | Kd (SXS (GST-SXL Sciara)) | Kd (SXM (GST-SXL Drosophila) [1]) | Kd (SXM (GST-SXL Drosophila) [2]) |
| --- | --- | --- | --- |
| B1 | 300 ± 200 nM | 500 ± 300 nM | – |
| B2 | – | – | 150000 ± 20000 nM |
